Data: IntAct's records for PubMed 32296183

Experiments:
pnma5_human PNMA5 = pnma5_human PNMA5 (UniProt Q96PV4)
tnip1_human TNIP1 = tnip1_human TNIP1 (UniProt Q15025)
xrcc4_human XRCC4 = xrcc4_human XRCC4 (UniProt Q13426)
rprm_human RPRM = rprm_human RPRM (UniProt Q9NS64)
trbp2_human TARBP2 = trbp2_human TARBP2 (UniProt Q15633)
car10_human CARD10 = car10_human CARD10 (UniProt Q9BWT7)
kank2_human KANK2 = kank2_human KANK2 (UniProt Q63ZY3)
msd4_human MSANTD4 = msd4_human MSANTD4 (UniProt Q8NCY6)
pick1_human PICK1 = pick1_human PICK1 (UniProt Q9NRD5)
snx2_human SNX2 = snx2_human SNX2 (UniProt O60749)
thap1_human THAP1 = thap1_human THAP1 (UniProt Q9NVV9)
thap1_human THAP1, sequence (Q9NVV9 whole entry): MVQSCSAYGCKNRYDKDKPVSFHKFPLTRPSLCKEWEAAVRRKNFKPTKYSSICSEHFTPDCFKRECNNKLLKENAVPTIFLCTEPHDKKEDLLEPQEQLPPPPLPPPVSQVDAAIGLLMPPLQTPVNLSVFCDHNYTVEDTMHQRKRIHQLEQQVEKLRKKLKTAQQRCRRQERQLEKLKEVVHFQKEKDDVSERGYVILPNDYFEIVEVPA

coha1_human COL17A1 = coha1_human COL17A1 (UniProt Q9UMD9)
klh12_human KLHL12 = klh12_human KLHL12 (UniProt Q53G59)
ppip1_human PSTPIP1 = ppip1_human PSTPIP1 (UniProt O43586)
ppip1_human PSTPIP1, sequence (O43586 whole entry): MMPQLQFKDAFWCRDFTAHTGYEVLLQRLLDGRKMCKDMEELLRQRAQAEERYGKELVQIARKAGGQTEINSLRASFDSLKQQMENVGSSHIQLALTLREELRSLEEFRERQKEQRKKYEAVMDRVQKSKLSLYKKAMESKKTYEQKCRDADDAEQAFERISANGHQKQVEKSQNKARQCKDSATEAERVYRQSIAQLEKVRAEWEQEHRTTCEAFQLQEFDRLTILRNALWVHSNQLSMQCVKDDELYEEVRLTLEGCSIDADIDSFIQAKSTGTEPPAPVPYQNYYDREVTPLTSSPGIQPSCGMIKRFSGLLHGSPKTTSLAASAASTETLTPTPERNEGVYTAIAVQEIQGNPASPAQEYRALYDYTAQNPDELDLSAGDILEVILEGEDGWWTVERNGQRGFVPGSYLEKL

cntrb_human CNTROB = cntrb_human CNTROB (UniProt Q8N137)
cntrb_human CNTROB, sequence (Q8N137 whole entry): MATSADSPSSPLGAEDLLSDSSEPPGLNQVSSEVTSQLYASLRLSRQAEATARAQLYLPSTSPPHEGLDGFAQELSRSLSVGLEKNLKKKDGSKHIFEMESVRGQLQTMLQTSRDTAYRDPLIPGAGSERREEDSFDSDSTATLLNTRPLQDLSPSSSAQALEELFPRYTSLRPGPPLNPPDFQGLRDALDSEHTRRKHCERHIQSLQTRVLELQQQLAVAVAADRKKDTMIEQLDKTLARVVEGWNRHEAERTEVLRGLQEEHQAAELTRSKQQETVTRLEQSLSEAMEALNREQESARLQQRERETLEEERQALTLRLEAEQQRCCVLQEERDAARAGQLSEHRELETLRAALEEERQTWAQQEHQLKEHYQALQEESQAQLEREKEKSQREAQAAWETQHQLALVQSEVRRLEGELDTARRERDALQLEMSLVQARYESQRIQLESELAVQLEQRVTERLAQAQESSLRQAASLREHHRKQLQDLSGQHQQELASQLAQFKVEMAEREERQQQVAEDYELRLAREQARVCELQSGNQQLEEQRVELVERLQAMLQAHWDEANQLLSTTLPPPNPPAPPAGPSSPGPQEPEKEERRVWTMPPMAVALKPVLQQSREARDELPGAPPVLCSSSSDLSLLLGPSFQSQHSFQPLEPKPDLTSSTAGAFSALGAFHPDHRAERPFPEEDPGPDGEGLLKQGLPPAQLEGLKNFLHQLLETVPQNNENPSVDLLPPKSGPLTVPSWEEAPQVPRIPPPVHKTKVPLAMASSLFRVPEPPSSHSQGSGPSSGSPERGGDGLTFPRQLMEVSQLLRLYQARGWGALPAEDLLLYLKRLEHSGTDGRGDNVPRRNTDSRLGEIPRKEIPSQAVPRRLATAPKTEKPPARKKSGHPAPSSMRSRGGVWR

sp4_human SP4 = sp4_human SP4 (UniProt Q02446)
syph_human SYP = syph_human SYP (UniProt P08247)
crcm_human MCC = crcm_human MCC (UniProt P23508)
tri37_human TRIM37 = tri37_human TRIM37 (UniProt O94972)
tri37_human TRIM37, sequence (O94972 whole entry): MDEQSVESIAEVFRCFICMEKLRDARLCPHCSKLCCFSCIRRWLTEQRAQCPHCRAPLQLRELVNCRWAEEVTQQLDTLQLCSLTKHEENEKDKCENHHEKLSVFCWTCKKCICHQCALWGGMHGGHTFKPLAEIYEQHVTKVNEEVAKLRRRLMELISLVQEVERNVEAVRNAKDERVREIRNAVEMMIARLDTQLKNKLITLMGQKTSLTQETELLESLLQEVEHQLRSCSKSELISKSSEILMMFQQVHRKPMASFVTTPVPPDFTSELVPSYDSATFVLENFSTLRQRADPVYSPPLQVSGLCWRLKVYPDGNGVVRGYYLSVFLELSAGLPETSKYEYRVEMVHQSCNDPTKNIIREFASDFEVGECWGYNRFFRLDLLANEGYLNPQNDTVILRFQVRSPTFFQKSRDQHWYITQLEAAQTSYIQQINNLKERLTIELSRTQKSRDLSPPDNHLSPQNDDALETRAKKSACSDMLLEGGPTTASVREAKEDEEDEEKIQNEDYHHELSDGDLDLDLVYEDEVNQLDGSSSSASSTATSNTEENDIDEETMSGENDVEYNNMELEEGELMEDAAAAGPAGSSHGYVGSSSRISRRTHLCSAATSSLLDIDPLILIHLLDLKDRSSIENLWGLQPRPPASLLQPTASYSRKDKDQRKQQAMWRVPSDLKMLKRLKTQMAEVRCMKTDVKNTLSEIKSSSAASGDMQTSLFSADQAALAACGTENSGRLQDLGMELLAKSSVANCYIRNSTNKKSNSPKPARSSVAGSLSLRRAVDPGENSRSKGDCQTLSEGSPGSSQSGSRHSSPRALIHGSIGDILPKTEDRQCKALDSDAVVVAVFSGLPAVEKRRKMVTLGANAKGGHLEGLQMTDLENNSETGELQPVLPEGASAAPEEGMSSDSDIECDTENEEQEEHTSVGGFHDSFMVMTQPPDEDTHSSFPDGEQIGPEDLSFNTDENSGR

flowr_human CACFD1 = flowr_human CACFD1 (UniProt Q9UGQ2)
flowr_human CACFD1, sequence (Q9UGQ2 whole entry): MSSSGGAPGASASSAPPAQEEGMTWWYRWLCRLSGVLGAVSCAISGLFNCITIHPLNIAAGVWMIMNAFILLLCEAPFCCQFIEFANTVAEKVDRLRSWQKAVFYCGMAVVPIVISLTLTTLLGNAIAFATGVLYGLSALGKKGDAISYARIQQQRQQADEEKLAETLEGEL

mgst2_human MGST2 = mgst2_human MGST2 (UniProt Q99735)
sng3_human SYNGR3 = sng3_human SYNGR3 (UniProt O43761)
fads6_human FADS6 = fads6_human FADS6 (UniProt Q8N9I5)
zbt14_human ZBTB14 = zbt14_human ZBTB14 (UniProt O43829)
zbt14_human ZBTB14, sequence (O43829 whole entry): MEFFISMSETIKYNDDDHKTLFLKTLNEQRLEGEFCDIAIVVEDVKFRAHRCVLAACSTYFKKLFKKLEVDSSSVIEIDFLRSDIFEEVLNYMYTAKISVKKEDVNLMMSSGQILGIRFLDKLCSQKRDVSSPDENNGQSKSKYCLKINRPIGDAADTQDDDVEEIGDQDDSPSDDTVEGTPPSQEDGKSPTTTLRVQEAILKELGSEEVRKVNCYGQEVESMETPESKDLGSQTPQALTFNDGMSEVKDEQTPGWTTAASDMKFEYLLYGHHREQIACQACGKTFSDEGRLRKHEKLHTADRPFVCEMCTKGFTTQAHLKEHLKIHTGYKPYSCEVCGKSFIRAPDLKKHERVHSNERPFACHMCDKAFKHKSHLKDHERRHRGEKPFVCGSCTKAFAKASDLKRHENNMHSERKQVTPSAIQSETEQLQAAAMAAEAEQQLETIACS

CCDC43 = CCDC43 (UniProt Q86WV7)
zn639_human ZNF639 = zn639_human ZNF639 (UniProt Q9UID6)
sft2a_human SFT2D1 = sft2a_human SFT2D1 (UniProt Q8WV19)
tbcd1_human TBC1D1 = tbcd1_human TBC1D1 (UniProt Q86TI0)

SYNGR1, O43759-2, sequence (O43759 other isoform, or with tags, fused parts or gaps): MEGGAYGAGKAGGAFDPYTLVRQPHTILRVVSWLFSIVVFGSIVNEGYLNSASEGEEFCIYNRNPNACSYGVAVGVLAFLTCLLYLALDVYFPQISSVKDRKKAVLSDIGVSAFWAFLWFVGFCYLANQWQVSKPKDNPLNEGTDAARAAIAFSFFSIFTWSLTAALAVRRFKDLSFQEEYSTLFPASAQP
CAMK2B, Q13554-3, sequence (Q13554 other isoform, or with tags, fused parts or gaps): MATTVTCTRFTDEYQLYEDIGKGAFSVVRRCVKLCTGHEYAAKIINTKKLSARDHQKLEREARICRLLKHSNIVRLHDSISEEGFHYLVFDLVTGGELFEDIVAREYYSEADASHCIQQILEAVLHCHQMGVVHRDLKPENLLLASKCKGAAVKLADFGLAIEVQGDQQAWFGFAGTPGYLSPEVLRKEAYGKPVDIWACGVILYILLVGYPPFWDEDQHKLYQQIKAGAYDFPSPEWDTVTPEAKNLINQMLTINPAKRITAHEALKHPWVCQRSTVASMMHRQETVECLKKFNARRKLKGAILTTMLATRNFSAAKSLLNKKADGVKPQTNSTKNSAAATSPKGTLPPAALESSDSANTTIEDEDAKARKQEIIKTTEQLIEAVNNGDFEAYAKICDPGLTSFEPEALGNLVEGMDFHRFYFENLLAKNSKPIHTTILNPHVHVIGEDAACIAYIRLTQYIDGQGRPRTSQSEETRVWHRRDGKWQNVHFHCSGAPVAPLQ
rprm_human RPRM, sequence (Q9NS64 whole entry): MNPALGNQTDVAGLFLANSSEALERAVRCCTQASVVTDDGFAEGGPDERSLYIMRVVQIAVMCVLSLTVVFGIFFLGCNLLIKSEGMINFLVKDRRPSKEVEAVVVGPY

effect of a mutation on the interaction (TMEM239, Q8WW34-2)	effect of a mutation on the interaction (pnma5_human PNMA5)	effect of a mutation on the interaction (tnip1_human TNIP1)	effect of a mutation on the interaction (xrcc4_human XRCC4)	effect of a mutation on the interaction (rprm_human RPRM)	effect of a mutation on the interaction (trbp2_human TARBP2)	effect of a mutation on the interaction (car10_human CARD10)	effect of a mutation on the interaction (kank2_human KANK2)	effect of a mutation on the interaction (CCDC14, Q49A88-3)	effect of a mutation on the interaction (msd4_human MSANTD4)	effect of a mutation on the interaction (pick1_human PICK1)	effect of a mutation on the interaction (snx2_human SNX2)	effect of a mutation on the interaction (thap1_human THAP1)	effect of a mutation on the interaction (IKZF1, Q13422-7)	effect of a mutation on the interaction (coha1_human COL17A1)	effect of a mutation on the interaction (klh12_human KLHL12)	effect of a mutation on the interaction (SYNGR1, O43759-2)	effect of a mutation on the interaction (ppip1_human PSTPIP1)	effect of a mutation on the interaction (cntrb_human CNTROB)	effect of a mutation on the interaction (sp4_human SP4)	Substance	other results
disrupting interaction strength	disrupting interaction strength	with no effect	with no effect	disrupting interaction strength	disrupting interaction strength	disrupting interaction strength	disrupting interaction strength	disrupting interaction strength	disrupting interaction strength	disrupting interaction strength	with no effect	disrupting interaction strength	with no effect	disrupting interaction strength	disrupting interaction strength	disrupting interaction strength	with no effect	with no effect	with no effect	Bifunctional polynucleotide phosphatase/kinase (Homo sapiens), Q96T60 E326K	effect of a mutation on the interaction (syph_human SYP): with no effect; effect of a mutation on the interaction (crcm_human MCC): disrupting interaction strength; effect of a mutation on the interaction (tri37_human TRIM37): with no effect; effect of a mutation on the interaction (flowr_human CACFD1): disrupting interaction strength; effect of a mutation on the interaction (mgst2_human MGST2): with no effect; effect of a mutation on the interaction (sng3_human SYNGR3): with no effect; effect of a mutation on the interaction (fads6_human FADS6): with no effect; effect of a mutation on the interaction (zbt14_human ZBTB14): with no effect; effect of a mutation on the interaction (CCDC43): disrupting interaction strength; effect of a mutation on the interaction (zn639_human ZNF639): with no effect; effect of a mutation on the interaction (sft2a_human SFT2D1): disrupting interaction strength; effect of a mutation on the interaction (tbcd1_human TBC1D1): with no effect; effect of a mutation on the interaction (CAMK2B, Q13554-3): disrupting interaction strength
with no effect	with no effect	with no effect	with no effect	with no effect	with no effect	with no effect	with no effect	with no effect	with no effect	with no effect	with no effect	with no effect	with no effect	with no effect	with no effect	with no effect	with no effect	with no effect	with no effect	Bifunctional polynucleotide phosphatase/kinase (Homo sapiens), Q96T60 P20S	effect of a mutation on the interaction (syph_human SYP): with no effect; effect of a mutation on the interaction (crcm_human MCC): with no effect; effect of a mutation on the interaction (tri37_human TRIM37): with no effect; effect of a mutation on the interaction (flowr_human CACFD1): with no effect; effect of a mutation on the interaction (mgst2_human MGST2): with no effect; effect of a mutation on the interaction (sng3_human SYNGR3): with no effect; effect of a mutation on the interaction (fads6_human FADS6): with no effect; effect of a mutation on the interaction (zbt14_human ZBTB14): with no effect; effect of a mutation on the interaction (CCDC43): with no effect; effect of a mutation on the interaction (zn639_human ZNF639): with no effect; effect of a mutation on the interaction (sft2a_human SFT2D1): with no effect; effect of a mutation on the interaction (tbcd1_human TBC1D1): with no effect; effect of a mutation on the interaction (CAMK2B, Q13554-3): with no effect
